In article doi:10.1101/2022.09.21.508879 one finds stoichiometry N data, which are given here for four substances.

The target of assay [1] is Homo sapiens CFAP410 C-terminal domain, wild type (Homo sapiens) (UniProt O43822). As to the kind of experiment: crystal structure.
Assay [2] concerns the target Chlamydomonas reinhardtii CFAP410 C-terminal domain, wild type (Chlamydomonas reinhardtii). Description: crystal structure.
The target is the same in assay [3]. Description: SEC-MALS. (In general: SEC sorts molecules by how far they enter the pores of the column.)
The target of assay [4] is Trypanosoma brucei CFAP410 C-terminal domain, wild type (Trypanosoma brucei). Description: crystal structure.
The target in assay [5] is Chlamydomonas reinhardtii CFAP410 C-terminal domain, mutant A219E (Chlamydomonas reinhardtii). As to the kind of experiment: SEC-MALS.

A word on the stoichiometry N: it is a count of units in the complex or per binding partner.

Take “Homo sapiens CFAP410 C-terminal domain, wild type (from UniProt O43822 212-246) (peptide)”: the stoichiometry N in assay [1] came out at 4. On to “Chlamydomonas reinhardtii CFAP410 C-terminal domain, wild type (peptide)”, for which the stoichiometry N in assay [2] and in assay [3] was 4 each time.

In turn, “Trypanosoma brucei CFAP410 C-terminal domain, wild type (peptide)” displayed a stoichiometry N in assay [4] of 4. Consider “Chlamydomonas reinhardtii CFAP410 C-terminal domain, mutant A219E (peptide)”, for which the stoichiometry N in assay [5] amounted to 2.
